Patent US20170224833A1, “SELF-ASSEMBLING MOLECULES THAT ACCUMULATE IN ACIDIC TUMOR MICROENVIRONMENTS” (OHIO STATE INNOVATION FOUNDATION, priority 2014, published 2017)
Residues, ends and D or L forms follow the SMILES beside them. *: point of attachment. Palmitoyl = CCCCCCCCCCCCCCCC(=O)*

How the values were obtained:
[1] = Critical aggregation concentration (CAC), pyrene 1:3 method; assay type: physicochemical
Description: For the CAC measurements, a series of solutions of the PA with concentrations ranging from 10 nM to 300 μM were prepared using serial dilutions in 150 mM NaCl and 2.2 mM CaCl2. The final concentration of pyrene in each solution was fixed to be 1.23 μM. This was followed by pH adjustment of the solutions using careful additions of HCl or NaOH. 70 μL of each solution was transferred to a 96-well plate and the fluorescence emission of pyrene was monitored using a hybrid reader fluorimeter (BioTek Synergy H4) at room temperature. The excitation wavelength was set at 335 nm. The ratio of the intensities of emissions at 376 nm and 392 nm were then plotted as a function of the PA concentration (log scale). The CAC was determined from an abrupt change in the slope of the plot using the least-squares fitting technique.
For CAC measurements, a series of solutions of either pure PA or PA mixture with concentrations ranging from 100-300 nM to 500-700 μM were prepared using serial dilutions in 150 mM NaCl and 2.2 mM CaCl2 (and 1.8 mM 20 kDa PEG in select samples). The final concentration of pyrene in each solution was fixed to be 4.5 μM. This was followed by pH adjustment of the solutions using careful additions of HCl or NaOH. 100 µL of each solution was transferred to a 96-well plate and the fluorescence emission of pyrene was monitored using a hybrid reader fluorimeter (BioTek Synergy H4) at room temperature. The excitation wavelength was set at 335 nm. The ratio of the intensities of emissions at 376 nm and 392 nm were then plotted as a function of the PA concentration (log scale). The CAC was determined from an abrupt change in the slope of the plot using the least-squares fitting technique.
The pyrene 1:3 method was used to determine CAC for the PAs (Aguiar, J., et al. J. Colloid Interface Sci. 2003 258:116-122). For both PA71 and PA68, CAC measurements were performed at various pH values (5-10). Samples of high PA concentration (300-750 μM) were prepared in deionized water containing 150 mM NaCl and 2.2 mM CaCl2. These samples were raised to 9 or greater pH using NaOH and heated at 80° C. for 30 minutes. Samples were then allowed to cool to room temperature and pH was altered to the desired value using dilute NaOH and HCl. Solutions containing only aqueous 150 mM NaCl and 2.2 mM CaCl2 and solutions containing these salts, a 1:1 solution of water and methanol, and 62 μM pyrene were also prepared. Each of these solutions was divided into various portions and adjusted to appropriate pH values. The PA solutions were serially diluted with the corresponding salt solutions with a total of 125 μL at each concentration. 5 μL of the pyrene containing solution as added to each dilution for a final pyrene concentration of 2.4 μM. Each diluted sample was probed for fluorescence with an excitation wavelength of 335 nm. Fluorescence was recorded with particular attention paid to the 376 nm and 392 nm emission peaks. The ratio of these two peaks was plotted versus PA concentration on a log scale. The CAC was determined from an abrupt change in the slope of the plot using the least-squares fitting technique.
Critical aggregation concentration (CAC) measurements were carried out to determine the concentration at which micelles or nanofibers begin to form by using the pyrene 1:3 method, (citation) All samples were basified to a pH of 10, stirred at 90° C. for 30 minutes in an oil bath and cooled to room temperature. HCl and NaOH were then added to set the PA solution specific pH value. PAs with concentrations ranging from 100 μM to 500 μM were serial diluted with 150 mM NaCl and 2.2 mM CaCl2. A pyrene solution was then added to each of the diluted samples, for a final pyrene concentration of 4.5 μM. 100 μL of each serial diluted sample were transferred into a 96-well plate and the fluorescence emission of the pyrene was monitored by a hybrid reader fluorimeter (BioTek Synergy H4) at room temperature with an excitation wavelength of 335 nm. […]

[2] = 150 mM NaCl, 2.2 mM CaCl2; previously found (Ghosh 2012); cited from earlier work
[3] = MRI r1 relaxivity measurement, 1.5 Tesla; assay type: physicochemical; conditions: 500 μM, 1.5 T
Description: An MR relaxometry phantom was built by fixing 5 mm NMR sample tubes containing PA samples at a concentration of 500 μM and pH values 4 and 10 in a 600 ml beaker filled with deionized water. The samples also contained 150 mM NaCl and 2.2 mM CaCl2. The phantom was scanned on a 1.5 Tesla Signa Excite MRI scanner using an 8-channel phased-array head coil (GE Healthcare, Milwaukee, Wis., USA). R relaxometry data were acquired using an Inversion Recovery Fast Spin-Echo (IR-FSE) sequence with the following parameters: inversion time TI=50/100/200/400/600/800/1200/1600/3200 ms; repetition time TR=8000 ms; echo time TE=11 ms; echo train length=10; 90° flip angle; 100×100 mm^2 field-of-view (FOV); 0.5 mm in-plane resolution; 2 mm slice thickness; single coronal slice placed at the center of the phantom. Sample longitudinal relaxation rates (R1) were calculated by fitting the MR signal intensities observed at different TIs (S(TI)) to a three parameter model [Lu et al., MRM 2004]:
S(TI)=|S0×(1−C×exp(−TI×R1))|
Where S0 is the equilibrium signal, C is a constant accounting for imperfect inversion of magnetization. The r1 relaxivity was calculated as the slope in the linear relationship between sample concentrations and their R1 relaxation rates.

[4] = pH titration of peptide amphiphiles (pKa); assay type: physicochemical; conditions: 10 μM
Description: The titration measurements were conducted on 10 μM peptide amphiphile solutions prepared in 150 mM NaCl and 2.2 mM CaCl2 using milli-Q water. The solution was heated at 80° C. for 30 minutes followed by slow cooling at room temperature. The pH of the solution was then adjusted to 4 using HCl. Finally, an Accumet XL15 pH meter (Fisher Scientific) coupled with an Orion Ross Ultra semi-micro electrode (8103BNUWP, Thermo Scientific) was used to track changes in pH of the solution as NaOH solution was added in small increments. pKa values were obtained from the second inflection points of the first derivative plots of the titration data. The first transition corresponds to neutralization of excess HCl. The calculated pKas reflect the average pKa for all four glutamic acids.

[5] = pH 5, 150 mM NaCl, 2.2 mM CaCl2

For “Palmitoyl-AIAAEEEEK(DO3A:Gd)-NH2 (Palmitoyl-AIAAEEEEK(DO3A)-NH2; also: DO3A chelates Gd) [PA71]”, the “CAC (below the detectable limit)” value ([1]; all pH values tested except pH 10) was 200 to 300 nM, the CAC [1, 5] was 1.3 µM and the “CAC, fold lower than PA5” value ([1]; pH ~7) was greater than 6.

For “Palmitoyl-IAAAEEEEK(DO3A:Gd)-NH2 (Palmitoyl-IAAAEEEEK(DO3A)-NH2; also: DO3A chelates Gd) [PA5]”, the “pH of concentration independent transition from spherical micelles to nanofibers” value [2] is listed as 6.0, the “relaxivity of water protons” value ([3]; pH 4 (nanofibers)) is listed as 8.3 mM⁻¹ s⁻¹ and the “relaxivity of water protons” value ([3]; pH 10 (spherical micelles)) is listed as 6.6 mM⁻¹ s⁻¹.

In the case of “palmitoyl-YYAAEEEEEK(DO3A:Gd)-NH2 (Palmitoyl-YYAAEEEEEK(DO3A)-NH2; also: DO3A chelates Gd) [PA74]”, the “CAC higher than PA75” value ([1]; pH 6) is reported as roughly 500%, the CAC ([1]; pH 7.06) is reported as 9.3 µM and the “CAC higher than PA75” value ([1]; pH 8) is reported as 5%. For the same compound, the CAC ([1]; pH 9.02) was 21.6 µM.

For `CCCCCCCCCCCCCCCC(=O)N[C@H](C(=O)N[C@@H](C)C(=O)N[C@@H](C)C(=O)N[C@@H](C)C(=O)N[C@@H](CCC(=O)O)C(=O)N[C@@H](CCC(=O)O)C(=O)N[C@@H](CCC(=O)O)C(=O)N[C@@H](CCC(=O)O)C(N)=O)[C@@H](C)CC` [PA1] (Palmitoyl-IAAAEEEE-NH2), the “glutamic acids in the deprotonated form at the transition” value [4] was 98.8% and the “critical aggregation concentration (CAC)” value ([1]; pH 6.6) was 6.0 µM.

With “Palmitoyl-AAAIEEEE-NH2 (SMILES CCCCCCCCCCCCCCCC(=O)N[C@@H](C)C(=O)N[C@@H](C)C(=O)N[C@@H](C)C(=O)N[C@H](C(=O)N[C@@H](CCC(=O)O)C(=O)N[C@@H](CCC(=O)O)C(=O)N[C@@H](CCC(=O)O)C(=O)N[C@@H](CCC(=O)O)C(N)=O)[C@@H](C)CC) [PA70]” the “aggregation state by pyrene 1:3 method” value ([1]; all pH and concentration values) was “in the aggregated state across all pH and concentration values”.

With `CCCCCCCCCCCCCCCC(=O)N[C@@H](C)C(=O)N[C@H](C(=O)N[C@@H](C)C(=O)N[C@@H](C)C(=O)N[C@@H](CCC(=O)O)C(=O)N[C@@H](CCC(=O)O)C(=O)N[C@@H](CCC(=O)O)C(=O)N[C@@H](CCC(=O)O)C(N)=O)[C@@H](C)CC` [PA68] (Palmitoyl-AIAAEEEE-NH2) the “CAC, times lower than PA1” value ([1]; comparable pH values) was 3-5, the CAC [1, 5] was 1.1 µM and the CAC ([1]; pH 10, 150 mM NaCl, 2.2 mM CaCl2) was 7.5 µM.
